Data on two molecules can be found in patent US7374920B2, “Ginkgo biloba levopimaradiene synthase” (priority 2001, dated 2008).

The nature of series [1]: in vitro assay of levopimaradiene synthase constructs expressed in wild-type S. cerevisiae JBY575. As to conditions: wild-type S. cerevisiae JBY575, galactose 48 hours, lysate with GGDP. The class given is biochemical, Saccharomyces cerevisiae. The protocol: Expression in S. cerevisiae JBY575, which represents wild-type yeast, was observed. JBY575 cells transformed with pRS426GAL inserted with the putative levopimaradiene synthase were grown in synthetic complete medium lacking uracil and supplemented with 2% glucose and 1.5% agar at 30° C. to saturation and induced with galactose for 48 hours. Cells were harvested, resuspended in lysis buffer, and mixed by vortexing over glass beads. The lysate was assayed with 60 μM GGDP in the presence and absence of 0.2% and 5% Triton X-100.
(§1) All in vitro reactions were extracted 3× with hexane and dried over MgSO4. The reaction was further extracted twice with diethyl ether and dried over MgSO4. Thereafter, the crude lysate was suspended in 100 mM Tris, pH 8.0 containing 2.9 units/mg apyrase (a dephosphorylating agent) and 10 units/μL calf intestinal alkaline phosphatase, incubated at 30° C. for 3 hours, and extracted with diethyl ether as noted above (Croteau and Cane, 1985). The crude reaction mixtures were eluted over SiO2, concentrated, and analyzed by GC and GC/MS.
(§2) Gas chromatography spectra were obtained on a Hewlett Packard 6890 Series GC System equipped with an Rtx-5 capillary column (Restek, 30 m×0.25 mm i.d., 0.10 μm df). The following separation conditions and temperature program were employed: injector port 250° C., FID 250° C., split ratio 39:1, helium flow 20 cm/s (0.6 mL/min), 150° C. hold 5 min, increase to 250° C. (5° C./min), hold 5 min. GC/MS spectra were obtained on a Hewlett-Packard 5890A instrument with a 30-m DB-5 ms column (J&W Scientific Inc., 0.25 mm i.d., 0.10 μm df). The following separation conditions and temperature program were employed: injector port 280° C., transfer lines: 280° C., helium flow at 30 cm/s (1 mL/min) with splitless injection at 150° C. hold 3 min, increase to 250° C. (5° C./min), hold 5 min. Mass spectra (m/z 50 to 500) were obtained on a VG ZAB-HF reverse-geometry double-focusing instrument at 70 eV with an electron-impact ion source (200° C.). Accelerating voltage was set to 8 kV and the resolution was 1000 (10% valley).
(§3) The skilled artisan recognizes that lysis and assay conditions should be optimized. Examples of parameters that can be adjusted to optimize conditions include altering buffer, pH, reductant, reductant concentration, metal cofactors, cofactor concentrations, glycerol concentrations, substrate concentrations, and assay temperatures. […] Maximum soluble protein production and diterpene yield were obtained with the following conditions. Cell cultures were induced with 1 mM IPTG at 20° C. with shaking for 6 hours and lysed by sonication in 30 mM HEPES, pH 7.2, 5 mM DTT, and 5% glycerol. The soluble fraction of the lysate (100 mg/1 mL) was incubated with 20 μM GGDP in 30 mM HEPES, pH 7.2, 5 mM DTT, 5% glycerol, 2 mM MgCl2, and 500 μM MnCl2 overnight at 32° C. Yeast expression was induced with galactose at 30° C. for 48 hours and the cells were lysed and assayed according to the conditions noted.

The nature of series [2]: in vitro enzymatic assay of levopimaradiene synthase constructs expressed in E. coli BL21(DE3). As to conditions: for diterpene product on bacterial expression: E. coli BL21(DE3), soluble lysate fraction, 20 μM GGDP, overnight at 32° C., GC and GC/MS. Format: biochemical, Escherichia coli. The protocol: The desired plasmids were prepared by ligating the mutated gene insert into the similarly digested vectors pET32c(+) (Novagen; Madison, Wis.) and pRS426GAL (Hua, 2000), a multiple copy yeast expression vector. These plasmids was expressed in E. coli BL21(DE3) (Novagen; Madison, Wis.). E. coli cells were grown in Luria-Bertani medium supplemented with 100 μg/mL ampicillin at 37° C. with shaking to OD600 ˜0.6. The following parameters were tested: isopropyl 1-thio-β-D-galactopyranoside (IPTG) concentration (50, 100, 250, 500, and 1000 μM); and temperature and time (20° C. for 2, 3, 4, 6, 21 hours, 22° C. for 6, 8, 16, 19, 22, 45 hours, and 30° C. for 3, 6 hours). The following assay conditions were tested to obtain maximum diterpene product yield: 30 mM HEPES (N-2-hydroxyethylpiperazine-N′-[…]), pH 6.9, 7.2, 7.6, 8.0; 30 mM Tris (tris(hydroxymethyl)aminomethane hydrochloride), pH 7.4, 7.8, 8.2; 1, 5, 10% glycerol; 1, 3, 5, 10, 20 mM DTT (dithiothreitol); 20 mM β-mercaptoethanol; 2, 5, 8% Triton X-100; 5% Tween 80; 0, 2, 7.5, 20, 50 mM MgCl2; 0, 30, 500, 1000 μM MnCl2; 2, 10, 13.3, 20, 40, 80, 200 μM GGDP; and 23° C. and 32° C. assay temperatures.
Optimal soluble protein production and diterpene yield were obtained with the following conditions. Cell cultures were induced with 1 mM IPTG at 20° C. with shaking for 6 hours and lysed by sonication in 30 mM HEPES, pH 7.2, 5 mM DTT, and 5% glycerol. The soluble fraction of the lysate (100 mg/mL) was incubated with 20 μM GGDP in 30 mM HEPES, pH 7.2, 5 mM DTT, 5% glycerol, 2 mM MgCl2, and 500 μM MnCl2 overnight at 32° C.
as §1, §2
as §3, with “Yeast expression was induced with galactose at 30° C. for 48 hours and the cells were lysed and assayed according to the conditions noted.” left out

“Also recorded” adds a separate entry of the source.

B1: Ala^2 (protein, listed as Ginkgo biloba)
chain: MAGVLFANLPCSLQLSPKVPFRQSTNILIPFHKRSSFGFNAQHCVRSHLRLRWNCVGIHASAAETRPDQLPQEERFVSRLNADYHPAVWKDDFIDSLTSPNSHATSKSSVDETINKRIQTLVKEIQCMFQSMGDGETNPSAYDTAWVARIPSIDGSGAPQFPQTLQWILNNQLPDGSWGEECIFLAYDRVLNTLACLLTLKIWNKGDIQVQKGVEFVRKHMEEMKDEADNHRPSGFEVVFPAMLDEAKSLGLDLPYHLPFISQIHQKRQKKLQKIPLNVLHNHQTALLYSLEGLQDVVDWQEITNLQSRDGSFLSSPASTACVFMHTQNKRCLHFLNFVLSKFGDYVPCHYPLDLFERLWAVDTVERLGIDRYFKKEIKESLDYVYRYWDAERGVGWARCNPIPDVDDTAMGLRILRLHGYNVSSDVLENFRDEKGDFFCFAGQTQIGVTDNLNLYRCSQVCFPGEKIMEEAKTFTTNHLQNALAKNNAFDKWAVKKDLPGEVEYAIKYPWHRSMPRLEARSYIEQFGSNDVWLGKTVYKMLYVSNEKYLELAKLDFNMVQALHQKETQHIVSWWRESGFNDLTFTRQRPVEMYFSVAVSMFEPEFAACRIAYAKTSCLAVILDDLYDTHGSLDDLKLFSEAVRRWDISVLDSVRDNQLKVCFLGLYNTVNGFGKDGLKEQGRDVLGYLRKVWEGLLASYTKEAEWSAAKYVPTFNEYVENAKVSIALATVVLNSIFFTGELLPDYILQQVDLRSKFLHLVSLTGRLINDTKTYQAERNRGELVSSVQCYMRENPECTEEEALSHVYGIIDNALKELNWELANPASNAPLCVRRLLFNTARVMQLFYMYRDGFGISDKEMKDHVSRTLFDPVA
For B1, the “diterpene product on yeast expression” value in series [1] is given as “failed to produce observable levels of any diterpene product”; in series [1] (listed as full-length) it was “failed to produce detectable levels of biosynthetic product”. For the same molecule, the “diterpene product on bacterial expression” value in series [2] was “produced levopimaradiene as the exclusive diterpene hydrocarbon”; in series [2] (listed as full-length cDNA), “provided enzymatic activity capable of cyclizing geranylgeranyl diphosphate to levopimaradiene”. The “difference in activity between highest (Ser^61) and lowest (Ala^2) levels” value in series [2] (bacterial expression) is “approximately 80%”.

B2: Ser^61: Ginkgo biloba levopimaradiene synthase truncated at Ala^60-Ser^61; amino acid sequence SEQ.ID.NO:35 (protein, listed as Ginkgo biloba)
chain: MSAAETRPDQLPQEERFVSRLNADYHPAVWKDDFIDSLTSPNSHATSKSSVDETINKRIQTLVKEIQCMFQSMGDGETNPSAYDTAWVARIPSIDGSGAPQFPQTLQWILNNQLPDGSWGEECIFLAYDRVLNTLACLLTLKIWNKGDIQVQKGVEFVRKHMEEMKDEADNHRPSGFEVVFPAMLDEAKSLGLDLPYHLPFISQIHQKRQKKLQKIPLNVLHNHQTALLYSLEGLQDVVDWQEITNLQSRDGSFLSSPASTACVFMHTQNKRCLHFLNFVLSKFGDYVPCHYPLDLFERLWAVDTVERLGIDRYFKKEIKESLDYVYRYWDAERGVGWARCNPIPDVDDTAMGLRILRLHGYNVSSDVLENFRDEKGDFFCFAGQTQIGVTDNLNLYRCSQVCFPGEKIMEEAKTFTTNHLQNALAKNNAFDKWAVKKDLPGEVEYAIKYPWHRSMPRLEARSYIEQFGSNDVWLGKTVYKMLYVSNEKYLELAKLDFNMVQALHQKETQHIVSWWRESGFNDLTFTRQRPVEMYFSVAVSMFEPEFAACRIAYAKTSCLAVILDDLYDTHGSLDDLKLFSEAVRRWDISVLDSVRDNQLKVCFLGLYNTVNGFGKDGLKEQGRDVLGYLRKVWEGLLASYTKEAEWSAAKYVPTFNEYVENAKVSIALATVVLNSIFFTGELLPDYILQQVDLRSKFLHLVSLTGRLINDTKTYQAERNRGELVSSVQCYMRENPECTEEEALSHVYGIIDNALKELNWELANPASNAPLCVRRLLFNTARVMQLFYMYRDGFGISDKEMKDHVSRTLFDPVA
As for B2, the “diterpene product on yeast expression” value in series [1] is listed as “yielded levopimaradiene as the sole diterpene; also recorded: yielded levopimaradiene synthase activity”. In addition, the “diterpene product on bacterial expression” value in series [2] is “produced levopimaradiene as the exclusive diterpene hydrocarbon; also recorded: provided enzymatic activity capable of cyclizing geranylgeranyl diphosphate to levopimaradiene”. The “turnover of GGDP” value in series [2] (bacterial expression, highest expression levels) is reported as “approximately 1%”.
